# Reference: paper doi:10.1101/2023.01.11.523539
# Columns and labels:
# Test in all cases: two-hybrid
# [1] = molecular target: BD-MLA13^F99E (CC domain mutant of MLA13 fused N-terminally to the LexA binding domain) (barley)
# [2] = molecular target: BD-MLA13^D2A_E17A (α1-helix mutant of MLA13 fused N-terminally to the LexA binding domain) (barley)
# [3] = molecular target: BD-MLA13 (wild-type MLA13 fused N-terminally to the LexA binding domain) (barley)
substance,measurement,setting,value
"AD-AVRA13-V2 (AVRA13-V2 lacking signal peptide, fused N-terminally to the B42 activation domain and 1xHA) (natural protein)",lowest dilution of yeast with growth without leucine,[1],0.01 OD600
same,lowest dilution of yeast with growth without leucine,[2],0.01 OD600
same,lowest dilution of yeast with growth without leucine,[3],0.001 OD600
